# Reference: article PMC7847540, “ClpX Is Essential and Activated by Single-Strand DNA Binding Protein in Mycobacteria” (Journal of Bacteriology, 2020)
# Target: the molecule itself
# Assay: size-based filtration (300-kDa cutoff filter)
protein,measurement,value
"N-terminally 6×His-tagged truncated form of ClpX (lacking the first 60 amino acids) (enzyme, ClpX ATPase, M. tuberculosis, lacking the first 60 amino acids; also called hexameric ClpX) not shown",stoichiometry N,6
